“And” between values parts separate entries of the source, which are not always exact repeats. Equal values may be shown once.
B1: 3-43 (antibody, V domains shown)
VH: QVQLQQPGAELVKPGASVKMSCKATGYTFTGYNMHWVKQTPGQGLEWIGAISPGKGDTSYNLKFKGKATLTTDKSSSTAYMQLSSLTSADSAVYYCARSGGTPFAYWGQGTLVTVSA
VL: DVVMTQTPLSLPVSLGDQASISCRSSQSLVHSNGDTYLYWYLQKPGQSPKLLIYKVSNRFSGVPDRFSGSGSGTDFTLKINRVEAEDLGVYFCSQSTHVPYTFGGGTKLEIK
B2: 3-1 (antibody, V domains shown)
VH: EVQLVETGGGLVQPKGSLKVSCAASGFTFNTNAMNWVRQAPGKGLEWVARIRSKSNNYATYYADSVKDRFIISRDDSQSMLYLQMNNLKTEDTAMYYCVRGGYYGTSVYFDVWGAGTTVTVSS
VL: DIVMTQAAPSVPVTPGESVSISCRSSKSLLHSNGNTYLYWFLQRPGQSPQLLIYRMSNLASGVPDRFSGSGSGTAFTLRISRVEAEDVGVYYCMQHLEYPFTFGGGTKLEIK
B3: 3-81 (antibody, human IgG1, kappa, V domains shown)
VH: QVQLQQSGPEVVKPGASVKVSCKTSGYTFTEYTIHWVRQSHGQSLEWVGGINPNNGNTRYDQKFKGRVTITIDKSSSTAYMELRSLTSEDTAVYYCARVARSSGSGPYAMDYWGQGTTVTVSS
VL: DVVMTQSPLSLPVTLGDQASISCRCSQSLLHTNGDTYLHWYLQRPGQSPRLLIYKVSNRFSGVPDRFSGSGSGTDFTLKISRVEAEDVGVYFCSQSTHVPYTFGGGTKVEIKR
notes: humanized, human IgG1 kappa
B4: 3-77 (antibody, human IgG1, kappa)
heavy: not shown
light: DIVMTQAAPSLSVTPGESASISCTSSKSLLHSNGNTYLYWFLQKPGQSPQLLIYRMSNLASGVPDRFSGSGSGTAFTLKISRVEAEDVGVYYCMQHREYPFTFGSGTKLEIKRTVAAPSVFIFPPSDEQLKSGTASVVCLLNNFYPREAKVQWKVDNALQSGNSQESVTEQDSKDSTYSLSSTLTLSKADYEKHKVYACEVTHQGLSSPVTKSFNRGEC
notes: humanized, human IgG1 kappa
B5: 3-78 (antibody, human IgG1, kappa)
heavy: not shown
light: B4 light
notes: humanized

How the values were obtained:
human CCR8 [1] = biological target: T1, human CCR8 (human, UniProt P51685 1-355); assay: competition flow cytometry on hCCR8 transfected CHO cells; blocked ligand CCL1-AF647 [cont.]
T1 construct: the cells are named under assay; also called hCCR8

pm6 [2] = biological target: T2, pm6 (human, sulfated tyrosines at Y16 and Y17); assay: ELISA on coated peptide [cont.]
T2 sequence (peptide, as listed by the source): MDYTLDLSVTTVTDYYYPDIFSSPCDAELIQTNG
Procedure, shortened: (§1)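 Anti-CCR8 mAbs tested at 1 μg/mL and then diluted 1/10 on CCR8-related peptides coated at 500 ng/mL in carbonate/bicarbonate buffer, 90 min at room temperature. Bound antibody developed with TMB for 15 min; optical density read as mAb reactivity.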

pm3 [3] = biological target: T3, pm3 (human, sulfated tyrosine at Y17); assay: ELISA on coated peptide [cont.]
T3 sequence (peptide, as listed by the source): as above
Procedure, shortened: as §1

pm8 [4] = biological target: T4, pm8 (human, sulfated tyrosines at Y15, Y16 and Y17); assay: ELISA on coated peptide [cont.]
T4 sequence (peptide, as listed by the source): as above
Procedure, shortened: as §1

pm5 [5] = biological target: T5, pm5 (human, sulfated tyrosines at Y15 and Y17); assay: ELISA on coated peptide [cont.]
T5 sequence (peptide, as listed by the source): as above
Procedure, shortened: as §1

human CCR8 [6] = biological target: T1, human CCR8; assay: cell-based or functional assay
human CCR8 [7] = biological target: T1, human CCR8; assay: cell-based or functional assay; remark: listed apart in the source
human CCR8 [8] = biological target: T1, human CCR8; assay: flow cytometry, hCCR8 transfected CHOK1 cells
human CCR8 [9] = biological target: T1, human CCR8; assay: cell-based or functional assay; remark: listed apart in the source
pm6 [10] = biological target: T2, pm6; assay: ELISA on coated peptide
Procedure: (§2) The specific binding properties of antibodies were evaluated by ELISA with coated CCR8 related peptides (500 ng/mL) in carbonate/bicarbonate buffer. Different peptides were used as described in Table 1 (see Example 1). Each anti-CCR8 mAb was tested at 1 μg/mL then diluted at 1/10. After an incubation at room temperature during 90 min, unbound mAbs were removed by washings. […] After washings, 3,3′,5,5′-tetramethylbenzidine (TMB) (Interchim, Montlugon, France) was added for 15 min. Then the optical density (OD) was determined by using a multiplate reader (Tecan, Lyon, France) and correlated with mAb reactivity on the panel of coated peptides.

pm3 [11] = biological target: T3, pm3; assay: ELISA on coated peptide
Procedure: as §2

pm8 [12] = biological target: T4, pm8; assay: ELISA on coated peptide
Procedure: as §2

pm5 [13] = biological target: T5, pm5; assay: ELISA on coated peptide
Procedure: as §2

pm4 [14] = biological target: T6, pm4 (human, sulfated tyrosine(s) among Tyr 15, Tyr 16, Tyr 17; marked only by underlining, lost in the text); assay: ELISA on coated peptide [cont.]
T6 sequence (peptide, as listed by the source): as above
Procedure, shortened: as §1

pwt1 = biological target: T7, pwt1 (human); assay: ELISA on coated peptide [cont.]
T7 construct: also called unmodified peptide
T7 sequence (peptide, as listed by the source): as above
Procedure, shortened: as §1

pm2 [15] = biological target: T8, pm2 (human, sulfated tyrosine(s) among Tyr 15, Tyr 16, Tyr 17; marked only by underlining, lost in the text); assay: ELISA on coated peptide [cont.]
T8 sequence (peptide, as listed by the source): as above
Procedure, shortened: as §1

pm1 [16] = biological target: T9, pm1 (human, sulfated tyrosine(s) among Tyr 15, Tyr 16, Tyr 17; marked only by underlining, lost in the text); assay: ELISA on coated peptide [cont.]
T9 sequence (peptide, as listed by the source): as above
Procedure, shortened: as §1

human CCR8 [17] = biological target: T1, human CCR8; assay: flow cytometry, HUT78 cells (native CCR8)
Procedure: The same staining protocol was applied on human CCR8 transfected CHO cell line versus wild type CHO cell line, cutaneous T cell lymphoma HUT78 cell line and human activated T cell model.
(§3) Briefly, 1·10⁵ cells per well in a 96 well plate were incubated with a dilution of unconjugated anti-CCR8 mAb at 10 μg/mL then diluted at 1/3.33, 4 dilution points (during 30 min at 4° C.). […] To determine EC50 value, 8 concentrations of anti-CCR8 mAb were tested. Unbound antibodies were washed away with PBS (Invitrogen by Thermofisher Scientific, Illkirch-Graffenstaden, France) supplemented by 2% Fetal Bovine Serum (Invitrogen by Thermofisher Scientific, Illkirch-Graffenstaden, France) and 2 mM EDTA (Invitrogen by Thermofisher Scientific, Illkirch-Graffenstaden, France). Subsequently, cells are centrifuged (5 min at 400 g) and bound antibody is detected with F(ab′)₂-Goat anti-Mouse IgG (H+L) Cross-Adsorbed Secondary Antibody, Alexa Fluor 488 (dilution 1/500) (Invitrogen by Thermofisher Scientific, Illkirch-Graffenstaden, France) or with F(ab′)₂-Goat anti-Human IgG Fc Secondary Antibody, PE (Invitrogen by Thermofisher Scientific, Illkirch-Graffenstaden, France) (dilution 1/1000) at 4° C. for 30 min. Detection reagent is washed away and cells are centrifuged (5 min at 400 g) and resuspended in 30 μL PBS. Bound detection antibody is quantified on a MacsQuant16 (Miltenyi, Gladbach, Germany) (B1 or B2 channel, 5000 events per acquisition).

CCR8 SNAP-tag = CCR8 SNAP-tag (human, UniProt P51685 1-355, SNAP-tag labelled with Lumi4-Terbium); assay: cell-based or functional assay
human CCR8 [18] = biological target: T1, human CCR8; assay: flow cytometry, human activated T cells pre-incubated with 200 nM hCCL1
Procedure: as §3
(§4) Binding characteristics of anti-CCR8 mAb cellular reactivity was further investigated by testing their binding to activated T cells.

human CCR8 [19] = biological target: T1, human CCR8; assay: competition HTRF on HEK-293 cells with hCCR8; blocked ligand CCL1-AF647 [cont.]
pm4 [20] = biological target: T6, pm4; assay: ELISA on coated peptide
Procedure: as §2

pm2 [21] = biological target: T8, pm2; assay: ELISA on coated peptide
Procedure: as §2

pm1 [22] = biological target: T9, pm1; assay: ELISA on coated peptide
Procedure: as §2

human CCR8 [23] = biological target: T1, human CCR8; assay: flow cytometry, human activated T cells
Procedure: as §3, §4

human CCR8 [24] = biological target: T1, human CCR8; assay: cell-based or functional assay; remark: listed apart in the source
human CCR8 [25] = biological target: T1, human CCR8; assay: cell-based or functional assay; remark: listed apart in the source

| Binder | binding result (pm6 [2]) | binding result (pm3 [3]) | binding result (pm8 [4]) | binding result (pm5 [5]) | hCCL1 (100 nM) residual response, Protocol #3, mAb 0.05 µg/mL (human CCR8 [6]) [%] | hCCL1 (100 nM) residual response, Protocol #3, mAb 0.5 µg/mL (human CCR8 [6]) [%] | hCCL1 (100 nM) residual response, Protocol #3, mAb 5 µg/mL (human CCR8 [6]) [%] | IC50 (Gi2 BRET, pH 6.5) (human CCR8 [7]) | IC50 (Gi2 BRET, pH 7.4) (human CCR8 [7]) | % positive cells (human CCR8 [8]) [%] | MFI fold change to isotype ctrl (human CCR8 [8]) [fold] | % of labelled cells (human CCR8 [17]) [%] | hCCL1 (100 nM) residual response, Protocol #2, mAb 0.08 µg/mL (human CCR8 [6]) [%] | hCCL1 (100 nM) residual response, Protocol #2, mAb 0.4 µg/mL (human CCR8 [6]) [%] | hCCL1 (100 nM) residual response, Protocol #2, mAb 10 µg/mL (human CCR8 [6]) [%] | IC50 (read off the curve) (human CCR8 [19]) [µg/mL] | binding result (pm4 [20]) | binding result (pm2 [21]) | binding result (pm1 [22]) | further results |
| --- | --- | --- | --- | --- | --- | --- | --- | --- | --- | --- | --- | --- | --- | --- | --- | --- | --- | --- | --- | --- |
| B1 | binds | binds | binds | binds | 102 | 98 | 84 | 0.678 µg/ml and 4.52 nM | 3.43 µg/ml and 22.9 nM | 76.2 | 8.37 |  |  |  |  |  |  |  |  | IC50 (read off the curve) (human CCR8 [1]): ~0.7 µg/mL; Top plateau value (% of hCCL1 100 nM) with 5 µg/mL mAb, Protocol #3 (human CCR8 [9]): 2880% |
| B2 |  |  |  |  |  |  |  | > 4.5 µg/ml and > 30 nM | > 4.5 µg/ml and > 30 nM | 38.8 | 2.61 |  |  |  |  |  |  |  |  | binding result (pm6 [10]): binds; binding result (pm3 [11]): binds; binding result (pm8 [12]): binds; binding result (pm5 [13]): binds |
| B3 | binds | binds | binds | binds | 73 | 52 | 37 | 0.018 µg/ml and 0.117 nM | 0.034 µg/ml and 0.224 nM |  |  | 88 | 77 | 66 | 41 |  |  |  |  | binding result (pm4 [14]): binds; binding result (pwt1): binds; binding result (pm2 [15]): binds; binding result (pm1 [16]): binds; EC50 (human CCR8 [17]): 200 pM; % of internalization at 1 µg/ml mAb (HTRF) (CCR8 SNAP-tag): 44%; % of internalization at 10 µg/ml mAb (HTRF) (CCR8 SNAP-tag): 36% |
| B4 | binds | binds | binds | binds | 94 | 63 | 39 | 0.018 µg/ml and 0.117 nM | 0.029 µg/ml and 0.194 nM |  |  | 23 | 62 | 38 | 30 | ~0.1 | binds | binds | binds | % of labelled cells (human CCR8 [18]): 64%; % of labelled cells (human CCR8 [23]): 79% |
| B5 | binds | binds | binds | binds | 89 | 63 | 51 | 0.025 µg/ml and 0.165 nM | 0.035 µg/ml and 0.232 nM |  |  | 32 | 74 | 54 | 40 | ~0.1 | binds | binds | binds | ADCC % Max lysis, NK cells Donor 1 (human CCR8 [24]): 30%; ADCC % Max lysis, NK cells Donor 2 (human CCR8 [24]): 28%; ADCC EC50, NK cells Donor 1 (human CCR8 [24]): 6.43 pM; ADCC EC50, NK cells Donor 2 (human CCR8 [24]): 0.42 pM; ADCP % Max of phagocytosis, monocyte-derived macrophages Donor 9 (human CCR8 [25]): 9.65% |

From patent US20260234276A1 (DOMAIN THERAPEUTICS, published 2026)
